Positions count from the first letter of the chain named. Read-outs that look alike come from different tables or passages of the source.
Tests used:
Assay in all cases: spot phage ELISA
[1] = target: T1, hVEGF-A (8-109) (human, UniProt P15692 214-315)
T1 sequence (looked up): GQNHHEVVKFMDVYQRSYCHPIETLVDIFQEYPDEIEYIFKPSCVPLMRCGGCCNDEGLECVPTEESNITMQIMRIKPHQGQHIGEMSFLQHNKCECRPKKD
Protocol: (§1) After four rounds of binding selection, individual phage clones were picked and inoculated into 450 μl 2YT media containing 50 µg/ml Carbenecillin and M13-KO7 helper phage in 96-well blocks, which were grown at 37° C. overnight. […] The plates were washed and bound phage was detected with anti-M13-HRP followed by TMB substrate. In these assays, phage binding to BSA alone was tested in parallel to assess background binding. […] Positive clones were subjected to DNA sequence analysis.

[2] = target: T1, hVEGF-A (8-109); remark: listed apart in the source
Protocol: as §1

[3] = target: T1, hVEGF-A (8-109); remark: listed apart in the source
Protocol: as §1

[4] = target: T2, LRP6 E1E2 protein (human, UniProt O75581 20-630, limits assumed); on ELISA: unit not given here
T2 construct: domain: E1E2
T2 sequence (looked up): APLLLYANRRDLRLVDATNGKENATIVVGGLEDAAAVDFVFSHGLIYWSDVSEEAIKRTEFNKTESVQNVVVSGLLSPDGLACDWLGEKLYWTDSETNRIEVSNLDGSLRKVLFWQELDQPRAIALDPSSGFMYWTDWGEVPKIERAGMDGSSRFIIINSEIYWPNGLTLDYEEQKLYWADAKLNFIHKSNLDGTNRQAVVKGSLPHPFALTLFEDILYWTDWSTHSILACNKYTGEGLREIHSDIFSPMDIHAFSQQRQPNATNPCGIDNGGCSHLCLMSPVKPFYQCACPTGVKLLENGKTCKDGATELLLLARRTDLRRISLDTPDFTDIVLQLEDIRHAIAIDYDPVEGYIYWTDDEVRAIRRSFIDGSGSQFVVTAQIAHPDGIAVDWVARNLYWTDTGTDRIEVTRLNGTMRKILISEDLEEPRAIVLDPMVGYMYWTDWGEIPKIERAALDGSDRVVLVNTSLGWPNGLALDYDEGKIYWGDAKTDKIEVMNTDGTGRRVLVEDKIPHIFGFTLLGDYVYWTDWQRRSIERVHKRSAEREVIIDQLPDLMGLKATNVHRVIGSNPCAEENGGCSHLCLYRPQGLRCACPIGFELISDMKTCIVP

B1: VEGF_CKP9.11 (designed binder)
chain: GCDRMQPYWGCKQDSDCLAGCVCQWYKSCG
Q: Which ELISA [1] does the source give for B1 here?
A: 1.1

Q: What about the “S/N vs BSA” value [1] of the same binder?
A: 14.1

B2: VEGF_CKP9.72 (designed binder)
chain: GCRLLEPSWGCKQDSDCLAGCVCQWYQSCG
Q: How did the ELISA [1] turn out when B2 was run?
A: 0.6

Q: What about the “S/N vs BSA” value [1] of the same binder?
A: 10

B3: VEGF_CKP9.71 (designed binder)
chain: GCQLLQPLWGCKQDSDCLAGCVCRWYQSCG
Q: For B3, which ELISA [1] is on record?
A: 1

Q: What about the “S/N vs BSA” value [1] of the same binder?
A: 16.5

B4: VEGF_CKP9.14 (designed binder)
chain: B3 chain with Q3K, L8M
Q: How did the ELISA [1] turn out when B4 was run?
A: 2

Q: What about the “S/N vs BSA” value [1] of the same binder?
A: 30.1

B5: VEGF_CKP9.76 (designed binder)
chain: B3 chain with Q3H, Q6L, Q27H
Q: For B5, which ELISA [1] is on record?
A: 1.3

Q: What about the “S/N vs BSA” value [1] of the same binder?
A: 15.5

B6: VEGF_CKP9.51 (designed binder)
chain: GCNLMHPFWGCKQDSDCLAGCVCHWYQSCG
Q: What does the source list for B6?
A: ELISA [1]: 1; S/N vs BSA [1]: 11

B7: VEGF_CKP9.47 (designed binder)
chain: GCKIMQPLWGCKQDSDCLAGCVCLWYDSCG
Q: Which ELISA [1] does the source give for B7 here?
A: 1

Q: And the “S/N vs BSA” value [1]?
A: 14.6

B8: VEGF_CKP9.69 (designed binder)
chain: B3 chain with Q3A, Q27N
Q: For B8, which ELISA [1] is on record?
A: 1

Q: And the “S/N vs BSA” value [1]?
A: 14.3

B9: VEGF_CKP9.L1.8 (designed binder)
chain: GCQVMQPAWGCKQDSDCLAGCVCHWYQSCG
Q: Which results are given for B9?
A: ELISA [2]: 1.2; S/N vs BSA [2]: 12.8

B10: VEGF_CKP9.L1.7 (designed binder)
chain: B9 chain with Q6R, A8F
Q: With B10 as the binder, how does the ELISA [2] read?
A: 1.5

Q: What about the “S/N vs BSA” value [2] of the same binder?
A: 8.9

B11: VEGF_CKP9.L1.2 (designed binder)
chain: GCHLFEPLWGCKQDSDCLAGCVCHWYQSCG
Q: With B11 as the binder, how does the ELISA [2] read?
A: 1.6

Q: What about the “S/N vs BSA” value [2] of the same binder?
A: 12.5

B12: VEGF_CKP7.54 (designed binder)
chain: GCLDRTLNWALYCKQDSDCLAGCVCQMYNSCG
Q: With B12 as the binder, how does the ELISA [3] read?
A: 0.5

Q: What about the “S/N vs BSA” value [3] of the same binder?
A: 9.3

B13: LRP6_CKP21 (designed binder)
chain: GCGNKIRACKQDSDCLAGCVCRDRVGCG
Q: How did the ELISA [4] turn out when B13 was run?
A: 2.8

Q: And the “S/N vs BSA” value [4]?
A: 33.7

B14: VEGF_CKP7.8 (designed binder)
chain: GCKNPLFNWALYCKQDSDCLAGCVCQLFDSCG
Q: B14 was tested. Which ELISA [3] did it give?
A: 0.5

Q: What about the “S/N vs BSA” value [3] of the same binder?
A: 7.5

B15: LRP6_CKP7.89 (designed binder)
chain: GCLDPSFDWALYCKQDSDCLAGCVCQLYNSCG
Q: How did the ELISA [3] turn out when B15 was run?
A: 0.5

Q: What about the “S/N vs BSA” value [3] of the same binder?
A: 8.1

B16: LRP6_CKP13 (designed binder)
chain: GCVNSVKRCKQDSDCLAGCVCSRGVNCG
Q: Which results are given for B16?
A: ELISA [4]: 3.28; S/N vs BSA [4]: 37.8

B17: LRP6_CKP22 (designed binder)
chain: GCANRVKRTSCKQDSDCLAGCVCGPNGFCG
Q: How did the ELISA [4] turn out when B17 was run?
A: 3.43

Q: And the “S/N vs BSA” value [4]?
A: 42.9

B18: VEGF_CKP7.17 (designed binder)
chain: GCQDPTVNWAVYCKQDSDCLAGCVCQFYQSCG
Q: With B18 as the binder, how does the ELISA [3] read?
A: 0.8

Q: What about the “S/N vs BSA” value [3] of the same binder?
A: 13.4

B19: VEGF_CKP7.46 (designed binder)
chain: B18 chain with Q3E, N8D, V11Q, F27M
Q: What does the source list for B19?
A: ELISA [3]: 0.3; S/N vs BSA [3]: 4.9

B20: VEGF_CKP7.57 (designed binder)
chain: B15 chain with D8N, A10S, L27M, N29D
Q: Which ELISA [3] does the source give for B20 here?
A: 1

Q: And the “S/N vs BSA” value [3]?
A: 17.4

B21: VEGF_CKP7.19 (designed binder)
chain: B18 chain with V7F, V11E, F27L
Q: Which ELISA [3] does the source give for B21 here?
A: 0.6

Q: What about the “S/N vs BSA” value [3] of the same binder?
A: 11.1

B22: VEGF_CKP7.35 (designed binder)
chain: B18 chain with V7F, V11E, F27M
Q: How did the ELISA [3] turn out when B22 was run?
A: 0.6

Q: And the “S/N vs BSA” value [3]?
A: 10.6

B23: VEGF_CKP7.43 (designed binder)
chain: B18 chain with V7L, V11T, F27M
Q: Which results are given for B23?
A: ELISA [3]: 0.5; S/N vs BSA [3]: 6.3

B24: VEGF_CKP7.24 (designed binder)
chain: B12 chain with L3W, R5P, L7F, N29D
Q: Which ELISA [3] does the source give for B24 here?
A: 0.8

Q: And the “S/N vs BSA” value [3]?
A: 13.4

B25: VEGF_CKP7.50 (designed binder)
chain: GCQDPSLNWADYCKQDSDCLAGCVCQMHQSCG
Q: What does the source list for B25?
A: ELISA [3]: 0.8; S/N vs BSA [3]: 14.3

B26: LRP6_CKP17 (designed binder)
chain: GCSNYVKRCKQDSDCLAGCVCSPGGRCG
Q: For B26, which ELISA [4] is on record?
A: 3.09

Q: What about the “S/N vs BSA” value [4] of the same binder?
A: 35.9

B27: LRP6_CKP15 (designed binder)
chain: GCNRIRNSCKQDSDCLAGCVCGRGDYCG
Q: For B27, which ELISA [4] is on record?
A: 2.03

Q: What about the “S/N vs BSA” value [4] of the same binder?
A: 26.3

B28: VEGF_CKP9.9 (designed binder)
chain: GCQLLEPMWGCKQDSDCLAGCVCHWYNSCG
Q: Which ELISA [1] does the source give for B28 here?
A: 1.1

Q: What about the “S/N vs BSA” value [1] of the same binder?
A: 19.7

B29: LRP6_CKP16 (designed binder)
chain: GCSRNSIKCKQDSDCLAGCVCASGSSCG
Q: With B29 as the binder, how does the ELISA [4] read?
A: 3.36

Q: And the “S/N vs BSA” value [4]?
A: 31.1

B30: VEGF_CKP7.88 (designed binder)
chain: GCQDPKLNWAVYCKQDSDCLAGCVCQLFNSCG
Q: Which ELISA [3] does the source give for B30 here?
A: 0.5

Q: And the “S/N vs BSA” value [3]?
A: 7.7

B31: VEGF_CKP7.73 (designed binder)
chain: GCRDLTINWALFCKQDSDCLAGCVCQMFNSCG
Q: With B31 as the binder, how does the ELISA [3] read?
A: 1.2

Q: And the “S/N vs BSA” value [3]?
A: 19.2

B32: LRP6_CKP20 (designed binder)
chain: GCENRTKGCKQDSDCLAGCVCGFRGTCG
Q: For B32, which ELISA [4] is on record?
A: 3.1

Q: And the “S/N vs BSA” value [4]?
A: 38.7

B33: LRP6_CKP11 (designed binder)
chain: GCRSNRIRCKQDSDCLAGCVCYGHGDCG
Q: For B33, which ELISA [4] is on record?
A: 2.65

Q: What about the “S/N vs BSA” value [4] of the same binder?
A: 36.8

B34: LRP6_CKP14 (designed binder)
chain: GCGSNKIRPRCKQDSDCLAGCVCGPNDFCG
Q: B34 was tested. Which ELISA [4] did it give?
A: 3.18

Q: And the “S/N vs BSA” value [4]?
A: 43.5

B35: VEGF_CKP7.2 (designed binder)
chain: GCDDPSFDWSVYCKQDSDCLAGCVCRMYDSCG
Q: Which ELISA [3] does the source give for B35 here?
A: 1.2

Q: What about the “S/N vs BSA” value [3] of the same binder?
A: 21.5

B36: VEGF_CKP7.78 (designed binder)
chain: GCKDTTFNWGLFCKQDSDCLAGCVCQLYQSCG
Q: What does the source list for B36?
A: ELISA [3]: 0.7; S/N vs BSA [3]: 11.8

B37: VEGF_CKP7.81 (designed binder)
chain: GCLDPTVNWALFCKQDSDCLAGCVCQHYKTCG
Q: What does the source list for B37?
A: ELISA [3]: 1.1; S/N vs BSA [3]: 18.6

B38: LRP6_CKP12 (designed binder)
chain: GCRSNKLREARGCKQDSDCLAGCVCGSRQDCG
Q: Which results are given for B38?
A: ELISA [4]: 0.6; S/N vs BSA [4]: 6.78

B39: LRP6_CKP10 (designed binder)
chain: GCASSNSIRQGWCKQDSDCLAGCVCGPKSNCG
Q: How did the ELISA [4] turn out when B39 was run?
A: 3.29

Q: And the “S/N vs BSA” value [4]?
A: 37.4

From US20200325187A1 (Genentech, published 2020)
